Experimental findings from the nanobody polyreactivity screen of Harvey et al. (2022) are described below.

The data set can be described thus: yeast display, Sf9 membrane polyspecificity reagent, FACS + sequencing; frameworks hold sequencing errors. In short, it runs like this:
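Sorting gates, low and high (top ~1%), were placed on anti-HA fluorescence to track expression and on streptavidin fluorescence to track reagent binding. A clone's polyreactivity label is taken from the gate it came out of. The reagent was 10% biotinylated, detergent-solubilized Sf9 membrane, applied for 1 hour at 4 °C to galactose-induced yeast display cells.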
For “QVQLVESGGGLVQAGGSLRLSCAASGFTIAYYAMGWYRQAPGKERELVAAITTSGSTYYADSVKGRFTISRDNAQNTVYLQMNSLKPEDTAVYYCAVSIWGWFASGFDYWGQGTQVTVSS”, the “polyreactivity (PSR sort gate)” value is “high polyreactivity”.

For “QVQLVESGGGLVQAGGSLRLSCAASGFTIDAYAMGWYRQAPGKDRELVAAISGSGGSTYYADSVKGRFTISRDNAKNTVYLQMNSLKPEDTALYYCAKDPGPYDYDYWGQGTQVTVSS”, the “polyreactivity (PSR sort gate)” value is listed as “low polyreactivity”.

Take “QVQLVESGGGLVQAGGSLRLSCAASGFTIDLYAMGWYRQAPGKERELVAAISIRGGSTYYADSVKGRFTISRDNAKNTVYLQMNSLKPEDTAVYYCATVTSRRSYIAYRGTGDYDYWGQGTQVTVSS”: the “polyreactivity (PSR sort gate)” value was “low polyreactivity”.

Regarding “QVQLVESGGGLVQAGGSLRLSCAASGFTIFYYAMGWYRQAPGKERELVASISWSGGSTYYADSVMGRFTISRENAKNSVYLQMNSLKPEDTAVYYCAADVPFGGDYWGQGTQVTVSS”, the “polyreactivity (PSR sort gate)” value is on record as “low polyreactivity”.

As to “QVQLVESGGGLVQAGGSLRLSCAASGFTISRYAMGWYRQAPGKERELVAAITWSGVSTYYADSVKGRFTISRDNAKNTVYLQMNSRKPEDTAVYYCAATTYSSSSSHDYWGQGTQVTVSS”, the “polyreactivity (PSR sort gate)” value is “low polyreactivity”.

Consider “QVQLVESGGGLVQAGGSLRLSCAASGFTISVYAMGWYRQAPGKERELVAAISWNGGRTYYAVSVKGRFTISRDNAKNTVYLQMNSLKPEDSAVYYCNKVSGYDVDYWGQGTQVTVSS”, for which the “polyreactivity (PSR sort gate)” value is on record as “high polyreactivity”.

Take “QVQLVESGGGLVQAGGSLRLSCAASGFTITQYGMGWYRQAPGKERELVADITYSGGDTYYADSVKGRFTISRDNAKNTVYLQMNSLKPEDTAVYFCAAYSWKYCFVWGYVYWGQGTQVTVSS”: the “polyreactivity (PSR sort gate)” value is “high polyreactivity”.

“QVQLVESGGGLVQAGGSLRLSCAASGFTIVTYAMGWYRQAPGKERELVAAISKSGGTTYYADSVKGRFTISRDNAKNTVYLQMNSLKPEDTAVYYCNKRWYIARPVDRYRYYYWGQGTQVTVSS”: the “polyreactivity (PSR sort gate)” value is “high polyreactivity”.

On to “QVQLVESGGGLVQAGGSLRLSCAASGFTIVYYAMGWYRQAPGKERELVAAITWSGGNTYYADSVKWRITISRDNAKNTVYLHMNSLKPEDNAVYYCAASPRGRRTTVGYPRRPFDYWGLGTQVTVSS”, for which the “polyreactivity (PSR sort gate)” value was “high polyreactivity”.

Consider “QVQLVESGGGLVQAGGSLRLSCAASGFTIWAYTMGCYRQAPGKEREFVADITSRGGSTFYADSVKGRFTISRDNAKNTVYLQMNSLKPEDTAVDYCAAEGFDTRMYYWGQGTQVTVSS”, for which the “polyreactivity (PSR sort gate)” value is “high polyreactivity”.

For “QVQLVESGGGLVQAGGSLRLSCAASGFTIWDYAMGWYRQAPGKERELVAAISWSGGSTYYADSVKGRFTISRDNAKNTVYLQMNSLKPEDTAVYYCNAVHYSHHGYDYWGQGTQVTVSS”, the “polyreactivity (PSR sort gate)” value is given as “low polyreactivity”.

For “QVQLVESGGGLVQAGGSLRLSCAASGFTIWRYAMGWYRQAPGKERELVAAISWRGGSTYYADSVKGRFTISRDNAKNTVYLQMNSLKPEDTAVYYCAAAYNLPPGYDYWGLGTQVTVSS”, the “polyreactivity (PSR sort gate)” value is “high polyreactivity”.

Turning to “QVQLVESGGGLVQAGGSLRLSCAASGFTIWWYAMGWSRRAPGKERELVATITSGGRTNYAYSVKGRFTISRDNAKNTVYLQMTSLKPEDTAVYYCATRQLSKVKDMDYWGQGTQVTVSS”, the “polyreactivity (PSR sort gate)” value is listed as “high polyreactivity”.

For “QVQLVESGGGLVQAGGSLRLSCAASGFTIYRYAMGWYRQAPGKERELVATIRRGGSTKYADSVKGRFTISRDNAKNTVYLQMNSLKPEDTAVYYCNARYYAAPDKYYYWGQGTQVTVSS”, the “polyreactivity (PSR sort gate)” value is “low polyreactivity”.

For “QVQLVESGGGLVQAGGSLRLSCAASGFTIYYYTMGWYRQAHGKERELVAAITWRGGSTNYADSVKGRFTISRDNAKNTVYLQMNSLKPEDTAVYYCAAVTYWFWPGMDYWGQGTQVTVSS”, the “polyreactivity (PSR sort gate)” value is recorded as “low polyreactivity”.

With “QVQLVESGGGLVQAGGSLRLSCAASGFTLAGYDMGWSRQAPGKERELVATLSTYADSVKGRFTISRDNAKNTVYLQMNSLKPEDTAVYYCAKKYVWTHNYWGQGTQVTVSS”, the “polyreactivity (PSR sort gate)” value is listed as “low polyreactivity”.

As for “QVQLVESGGGLVQAGGSLRLSCAASGFTLARYAMGWYRQAPGKERELVAAITKRGGSTYYADSVKGRFTISRDNAKNTVYLQMNSLKPEDTAVYYCATYKRSSHYDYWGQGTQVTVSS”, the “polyreactivity (PSR sort gate)” value is “high polyreactivity”.

Regarding “QVQLVESGGGLVQAGGSLRLSCAASGFTLARYAMGWYRQAPGKERELVAGITGGGSTYYADSVKGRFTISRDNAKNTVYLQMNSVKPEDTAVYYCNARTYWKSRLKQYNYWGQVTQVTVSS”, the “polyreactivity (PSR sort gate)” value is listed as “high polyreactivity”.

Turning to “QVQLVESGGGLVQAGGSLRLSCAASGFTLAYNTMGWYRQAPGKERELVASITSSGTSTYYADSVKGRFTISRDNAKNTVYLQMNSLKPPDTAVYYCAASIWLRYHWGYDYWGQGTQVTVSS”, the “polyreactivity (PSR sort gate)” value is “high polyreactivity”.

Turning to “QVQLVESGGGLVQAGGSLRLSCAASGFTLDPYAMGWYRQAPGKERELVAAIRLSGSSTYYADSVKGRFTISRDNAKNTVYLQMNSLKPEDTAVYYCAADGISHWMYRYDYWGQGTQVTVSS”, the “polyreactivity (PSR sort gate)” value was “low polyreactivity”.

In the case of “QVQLVESGGGLVQAGGSLRLSCAASGFTLDWYVMGWYRQAPGKERELVAAISSSGGRTYYADSVKGRFTISRDNAKNTVYLQRNSLKPEDTAVYYCAARNKYGGYPYGYDYWGQGTQVTVSS”, the “polyreactivity (PSR sort gate)” value is “high polyreactivity”.

In the case of “QVQLVESGGGLVQAGGSLRLSCAASGFTLDWYVMGWYRQAPRKERELFAAISSSGGRTYYADSVKGRFTISRDNAKNSVYLQMNSLKPEDTAVYYCAAGTYYRVGRGRRVSFVYWGQGTQVTVSS”, the “polyreactivity (PSR sort gate)” value is “high polyreactivity”.

Regarding “QVQLVESGGGLVQAGGSLRLSCAASGFTLEFYAMVWYRQAPGKKRELVARITTYGGSTRYADSVKGRFTISRDNAKNTVYLKMNSLKPEDTAVYNCAARGYGYRNVETYGYWGQGTQVTVSS”, the “polyreactivity (PSR sort gate)” value is given as “high polyreactivity”.

Take “QVQLVESGGGLVQAGGSLRLSCAASGFTLGCYAMGWYRQAPGKERELVAAITRDGSSTYYADSVKGRFTISRDNAKNTVYLQMNRLKPEDTAVYYCAAERKKKYDYWGQGTQVTVSS”: the “polyreactivity (PSR sort gate)” value is “high polyreactivity”.

In the case of “QVQLVESGGGLVQAGGSLRLSCAASGFTLGRYAKGWYRQAPGKERELVAAISSGGRTYYADSVKGRFTISRDNAKNTVYLQMNSLKPEDTAVYYCAADPRYISYDYWGQGTQVTVSS”, the “polyreactivity (PSR sort gate)” value is on record as “low polyreactivity”.

Turning to “QVQLVESGGGLVQAGGSLRLSCAASGFTLGRYAMGWYRQAPGKERELVAAITGRGGTTYYADSVKGRFRISRDNAKNTVYLQMNSLKPEDTAVYYCAADTKLSYQWFDYWGQGTQVTVSS”, the “polyreactivity (PSR sort gate)” value is reported as “high polyreactivity”.

For the sequence “QVQLVESGGGLVQAGGSLRLSCAASGFTLGYNAMGWYRQAPGKERQLVAGITWSGGSTSYADSVKGRFTISRDNAKNTVYLQMNSLKPEDTAVYYCAKLRRYSGWLPWPYAYDYWGLGTQVTVSS”, the “polyreactivity (PSR sort gate)” value is listed as “high polyreactivity”.

Consider “QVQLVESGGGLVQAGGSLRLSCAASGFTLGYNVMGWYRQAPGKERELVATICWNGARTYYADSVKGRFTISRDTAKNTVYLQMNSLKPEDTAVYYCAARRYYRGEYDYWGQGTQVTVSS”, for which the “polyreactivity (PSR sort gate)” value is on record as “low polyreactivity”.

With “QVQLVESGGGLVQAGGSLRLSCAASGFTLGYYAMGWDRQAPGKERELVASISITAGSTYYAVSVMGRLTISRDNAKNTVYLQMNSLKPEDTAVYYCAAKRRTRQSYYTVYYWGQGTQVTVSS”, the “polyreactivity (PSR sort gate)” value is “high polyreactivity”.

With “QVQLVESGGGLVQAGGSLRLSCAASGFTLHSYAMGWYRQAPWKERELVAAITRSGGGTYYADSVKGRFTISRDNAKNTVYLQMNSLKPEDTAVYYCAARFGGQYQHDYWGQGTQVTVSS”, the “polyreactivity (PSR sort gate)” value is “high polyreactivity”.
